Test [1] relates to Akt. In words: Akt phosphorylation in cells overexpressing HA-PHLPP2 (Western blot). Type of test: cell-based. The protocol:
(§1) ZR-75-1 cell lines were maintained in RPMI 1640 (Cellgro), and all other cell lines were maintained in DMEM (Celigro); both media were supplemented with 10% FBS and 1% penicillin/streptomycin. Cells were maintained at 37° C. in 5% CO2. Transient transfections and siRNA experiments were performed as previously described (6), except for ZR-75-1 cells, which were transfected using FuGENE reagent (Roche). For immunoblotting, transfected cells were lysed in Buffer 1 (50 mM Na2HPO4, pH 7.5, 1 mM sodium pyrophosphate, 20 mM NaF, 2 mM EDTA, 2 mM EGTA, 1% SDS, 1 mM DTT, 200 mM benzamidine, […] leupeptin, and 1 mM PMSF) and sonicated for 5 seconds. Lysates containing equal protein were analyzed on SDS-PAGE gels, and individual blots were probed using each antibody. Densitometric analysis was performed with the NIH Image analysis software (version 1.63).
Background: A western blot detects proteins with antibodies after separation by electrophoresis.

Test [2] has as its system Akt. The test is described as follows: in vitro kinase assay of Akt immunoprecipitated from 293T cells overexpressing PHLPP2. Type of test: cell-based. The protocol:
H157 cells transfected with vector or HA-PHLPP were lysed in buffer A. The detergent-solubilized cell lysates were incubated with an anti-Akt monoclonal antibody (5G3) and Ultra-link protein A/G beads (Pierce) at 4° C. overnight. Beads were washed three times in buffer A and twice in buffer B (25 mM Tris, pH 7.4, 10 mM MgCl2 and 1 mM DTT). In vitro kinase assays were carried out by incubating immunoprecipitated Akt in buffer containing 25 mM Tris, pH 7.4, 10 mM MgCl2 and 1 mM DTT, 200 μM ATP, 6 μM Crosstide (Upstate Biotechnology) and ^32Pγ-ATP at 30° C. for 30 minutes. Each reaction was performed in duplicate. The reactions were spotted onto P81 filter paper (Whatman), and radioactivity incorporated into the peptide was measured using a scintillation counter.
Akt was immunoprecipitated from cell lysates using Akt agarose (Upstate Biotechnologies) and kinase reactions were performed using an Akt kinase assay kit (Cell Signaling) as described previously in Example 5.

A further test relates to 293T cells. The test is described as follows: G1/S ratio by flow cytometry, PHLPP2 expression. Type of test: cell-based. The conditions noted are these: high serum (10% FBS), 48 hrs. The protocol:
(§2) Apoptotic assays were performed as described above. To determine G1/S ratios, cells were co-transfected with GFP and HA-PHLPP2 and incubated under high serum (10% FBS) conditions for 48 hrs and cells were gated based on GFP expression as described above. For BrdU incorporation assays, cells were transfected with 100 nM siRNA (si-1) and incubated for 48 hrs prior to performing assay following manufacturers protocol (Oncogene Research Products).
(In general: Flow cytometry measures light scatter and fluorescence of single cells or particles in a stream.)

Test [3] deals with H157 cells. In words: G1/S ratio by flow cytometry, PHLPP2 expression. It is filed as cell-based. The conditions noted are these: high serum (10% FBS), 48 hrs. The protocol: as §2
For the next test, the system named is MEK 1/2 or ERK 1/2. The test is described as follows: MAPK signaling pathway on PHLPP2 expression (Western blot). It is filed as cell-based. To be noted: untreated cells. On the procedure:
as §1

The test system of the next test is MDA-MB-231 cells. In words: apoptosis assay, sub-2N DNA by flow cytometry. Type of test: cell-based. To be noted: from 2.9+0.9 without PHLPP2. On the procedure:
(§3) Apoptosis assays were performed as described previously (Brognard et al., 2001). Briefly, cells were transfected with different PHLPP expression constructs or siRNAs. In the case of gating for transfected cells, a GFP expression construct was co-transfected into the cells. Approximately 24 hours post-transfection, the cells were switched to low serum medium (DMEM plus 0.1% FBS) and allowed to grow for an additional 48 hours. For LY294002 (25 μM) treatment, the drug was added at the time when the cells were switched into the low serum medium. The cells were collected and stained with propidium iodide (25 μg/ml). Apoptotic cells were defined as sub-2N DNA containing cells. Quantification of apoptosis was obtained using flow cytometry analysis with a Becton Dickinson FACSort.
as §2

The next test deals with Bt-474 cells. The test is described as follows: apoptosis assay, sub-2N DNA by flow cytometry. It is filed as cell-based. The conditions noted are these: from 2.0+0.2 without PHLPP2. On the procedure: as §3, §2
Test [4] concerns H157 cells. The test is described as follows: apoptosis assay, sub-2N DNA by flow cytometry. To be noted: serum deprivation; vector-transfected cells 3.1±0.1%. Type of test: cell-based. The protocol: as §3, §2
Another test deals with PKC, p90RSK, or p70S6K. In words: phosphorylation of the hydrophobic motif in other AGC family kinases on PHLPP2 expression (Western blot). It is filed as cell-based. The conditions noted are these: 293T and H157 cells. The protocol:
as §1

The target of test [5] is T1, Akt (Homo sapiens, UniProt P31749).
T1 construct: 6His; made in house; host or cells: Akt1: baculovirus-infected Sf21 cells; HA-PHLPP2: transfected 293T cells, immunoprecipitated with HA antibody
T1 sequence (P31749 whole entry): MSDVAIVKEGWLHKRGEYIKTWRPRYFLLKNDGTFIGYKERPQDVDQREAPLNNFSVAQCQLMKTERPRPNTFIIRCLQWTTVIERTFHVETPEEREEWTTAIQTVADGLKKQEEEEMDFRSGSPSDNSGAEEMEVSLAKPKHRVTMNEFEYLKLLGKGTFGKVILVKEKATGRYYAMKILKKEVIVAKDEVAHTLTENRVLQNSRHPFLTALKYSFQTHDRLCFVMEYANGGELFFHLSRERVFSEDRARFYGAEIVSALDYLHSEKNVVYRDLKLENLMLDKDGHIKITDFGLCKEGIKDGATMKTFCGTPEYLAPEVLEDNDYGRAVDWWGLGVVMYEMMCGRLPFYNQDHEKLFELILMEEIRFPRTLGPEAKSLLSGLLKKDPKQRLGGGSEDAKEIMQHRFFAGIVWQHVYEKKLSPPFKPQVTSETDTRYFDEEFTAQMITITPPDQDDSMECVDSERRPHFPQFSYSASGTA
In words: dephosphorylation assay with immunoprecipitated full-length HA-PHLPP2 and pure Akt. It is filed as biochemical. On the procedure:
A GST-fusion protein of PHLPP-1α-PP2C was expressed in BL21 (DE3) and purified using glutathione-Sepharose. The GST-PP2C proteins were eluted from the beads in PBS containing 10 mM glutathione and 1 mM DTT, and dialyzed against 50 mM Tris (pH 7.4) and 1 mM DTT. His-tagged Akt was expressed and purified from baculovirus-infected Sf21 cells. Briefly, Sf21 cells were maintained in SF-900 II media (Invitrogen) and infected with baculovirus encoding His-Akt for 3 days. To obtain maximally phosphorylated Akt as substrate, the infected cells were treated with 10% FBS and calyculin A (100 nM) for 15 minutes prior to lysis. The infected cells were lysed in PBS containing 1% Triton X-100 and 10 mM imidazole, and His-Akt proteins were purified using Ni-NTA beads (Qiagen). The dephosphorylation reactions were carried out in a reaction buffer containing 50 mM Tris (pH 7.4), 1 mM DTT and 5 mM MnCl2 at 30° C. for 0-30 minutes.
GST-PP2C was expressed in BL21 bacterial cells; phosphatase assays were performed using the purified GST-PP2C construct conjugated to glutathione-sepharose and pure Akt as a substrate as described above. The activity of full length HA-PHLPP2 was assessed by expressing and immunoprecipitating PHLPP2 from 293T or H157 cell lysates. Cells were lysed in Buffer 2 (20 mM HEPES, pH 7.4, 1% Triton X-100, 1 mM DTT, 200 mM benzamidine, […] leupeptin, and 1 mM PMSF). […]

Results on 1 molecule are retold here after patent US20080108569A1, “Compositions and Methods for Treating Diseases Associated With Phlpp” (The Regents of the University of California, priority 2005, published 2008).

B1: HA-PHLPP2: HA-tagged full length human PHLPP2 expressed from pcDNA3HA vector; PHLPP2 protein is SEQ ID NO: 4 (protein, listed as Homo sapiens)
chain: MKRNGSRNCLNRRSRFGSRERDWLREDVKRGCVYLYGADTTTATTTTTTSSSSSSSSSSSDLHLVLCTVETPASEICAGEGRESLYLQLHGDLVRRLEPTERPLQIVYDYLSRLGFDDPVRIQEEATNPDLGCMIRFYGEKPCHMDRLDRILLSGIYNVRKGKTQLHKWAERLVVLCGTCLIVSSVKDCQTGKMHILPLVGGKIEEVKRRQYSLAFSSAGAQAQTYHVSFETLAEYQRWQRQASKVVSQRISTVDLSCYSLEEVPEHLFYSQDITYLNLRHNFMQLERPGGLDTLYKFSQLKGLNLSHNKLGLFPILLCEISTLTELNLSCNGFHDLPSQIGNLLNLQTLCLDGNFLTTLPEELGNLQQLSSLGISFNNFSQIPEVYEKLTMLDRVVMAGNCLEVLNLGVLNRMNHIKHVDLRMNHLKTMVIENLEGNKHITHVDLRDNRLTDLDLSSLCSLEQLHCGRNQLRELTLSGFSLRTLYASSNRLTAVNVYPVPSLLTFLDLSRNLLECVPDWACEAKKIEVLDVSYNLLTEVPVRILSSLSLRKLMLGHNHVQNLPTLVEHIPLEVLDLQHNALTRLPDTLFSKALNLRYLNASANSLESLPSACTGEESLSMLQLLYLTNNLLTDQCIPVLVGHLHLRILHLANNQLQTFPASKLNKLEQLEELNLSGNKLKTIPTTIANCKRLHTLVAHSNNISIFPEILQLPQIQFVDLSCNDLTEILIPEALPATLQDLDLTGNTNLVLEHKTLDIFSHITTLKIDQKPLPTTDSTVTSTFWSHGLAEMAGQRNKLCVSALAMDSFAEGVGAVYGMFDGDRNEELPRLLQCTMADVLLEEVQQSTNDTVFMANTFLVSHRKLGMAGQKLGSSALLCYIRPDTADPASSFSLTVANVGTCQAVLCRGGKPVPLSKVFSLEQDPEEAQRVKDQKAIITEDNKVNGVTCCTRMLGCTYLYPWILPKPHISSTPLTIQDELLILGNKALWEHLSYTEAVNAVRHVQDPLAAAKKLCTLAQSYGCQDNVGAMVVYLNIGEEGCTCEMNGLTLPGPVGFASTTTIKDAPKPATPSSSSGIASEFSSEMSTSEVSSEVGSTASDEHNAGGLDTALLPRPERRCSLHPTPTSGLFQRQPSSATFSSNQSDNGLDSDDDQPVEGVITNGSKVEVEVDIHCCRGRDLENSPPLIESSPTLCSEEHARGSCFGIRRQNSVNSGMLLPMSKDRMELQKSPSTSCLYGKKLSNGSIVPLEDSLNLIEVATEVPKRKTGYFAAPTQMEPEDQFVVPHDLEEEVKEQMKQHQDSRLEPEPHEEDRTEPPEEFDTAL
modifications: HA tag
On to B1, for which the “decrease in phosphorylation at Ser 473” value in the test on Akt [1] (Bt-474 cell line) was “approximately 80%”; in the test with Akt [1] (MDA-MB-231 cell line), around 70%. Also, the “effects on the phosphorylation of Thr 308” value with Akt [1] (overexpression in 293T and H157 cells) is recorded as “minimal effects”. For the same molecule, the “reduction in phosphorylation at Ser 473” value is 76±3% in the test on Akt [1] (overexpression in 293T cells) and 72+8% in the test with Akt [1] (overexpression in H157 cells). Also, the “reduction in Ser 473 phosphorylation of immunoprecipitated Akt” value in the test on Akt [2] (293T cells overexpressing PHLPP2, compared to vector-transfected cells) was determined as 70%. Besides, the “reduction in substrate phosphorylation (GSK-3 fusion protein)” value in the test with Akt [2] (Akt from 293T cells overexpressing PHLPP2) turned out to be 80%. The “increase in the G1/S ratio” value with 293T cells is on record as “approximately 3 fold”; with H157 cells [3] it was “approximately 2 fold”. For the same molecule, the “phosphorylation of MEK 1/2 or ERK 1/2” value in the test with MEK 1/2 or ERK 1/2 is listed as “did not alter”. Also, the “apoptosis (sub-2N-DNA content)” value with MDA-MB-231 cells was 11.5+3.6 relative units; in the test with Bt-474 cells, 15.8+0.6 relative units. In the test with H157 cells [4], the “relative sub-2N DNA (apoptosis)” value amounted to 28±5%. The “effect on the phosphorylation of the hydrophobic motif in PKC, p90RSK, or p70S6K” value in the test with PKC, p90RSK, or p70S6K is reported as “no significant effect”. In addition, in the test with Akt [5], the “dephosphorylation of Ser 473” value is given as 60+4%. Also, in the test with Akt [5], the “effect on Thr 308 phosphorylation” value is given as “no significant effect”.
